In PMC5428262:

Biological target: GFP-tagged tomosyn1 (GFP-Tomosyn1), wild type (rat) (UniProt Q9WU70)
Test: co-IP; GFP antiserum and protein G agarose, overnight, 300 ug extract of INS 832/13 cells expressing GFP-tomosyn1 constructs; lysis buffer with 1% Triton X-100, 150 mM NaCl, 25 mM N-ethylmaleimide; blot; cells in regular media or treated with 10 mM glucose or 30 mM KCl (15 min) in KRB

Sequence of UniProt Q9WU70 (Q9WU70 whole entry): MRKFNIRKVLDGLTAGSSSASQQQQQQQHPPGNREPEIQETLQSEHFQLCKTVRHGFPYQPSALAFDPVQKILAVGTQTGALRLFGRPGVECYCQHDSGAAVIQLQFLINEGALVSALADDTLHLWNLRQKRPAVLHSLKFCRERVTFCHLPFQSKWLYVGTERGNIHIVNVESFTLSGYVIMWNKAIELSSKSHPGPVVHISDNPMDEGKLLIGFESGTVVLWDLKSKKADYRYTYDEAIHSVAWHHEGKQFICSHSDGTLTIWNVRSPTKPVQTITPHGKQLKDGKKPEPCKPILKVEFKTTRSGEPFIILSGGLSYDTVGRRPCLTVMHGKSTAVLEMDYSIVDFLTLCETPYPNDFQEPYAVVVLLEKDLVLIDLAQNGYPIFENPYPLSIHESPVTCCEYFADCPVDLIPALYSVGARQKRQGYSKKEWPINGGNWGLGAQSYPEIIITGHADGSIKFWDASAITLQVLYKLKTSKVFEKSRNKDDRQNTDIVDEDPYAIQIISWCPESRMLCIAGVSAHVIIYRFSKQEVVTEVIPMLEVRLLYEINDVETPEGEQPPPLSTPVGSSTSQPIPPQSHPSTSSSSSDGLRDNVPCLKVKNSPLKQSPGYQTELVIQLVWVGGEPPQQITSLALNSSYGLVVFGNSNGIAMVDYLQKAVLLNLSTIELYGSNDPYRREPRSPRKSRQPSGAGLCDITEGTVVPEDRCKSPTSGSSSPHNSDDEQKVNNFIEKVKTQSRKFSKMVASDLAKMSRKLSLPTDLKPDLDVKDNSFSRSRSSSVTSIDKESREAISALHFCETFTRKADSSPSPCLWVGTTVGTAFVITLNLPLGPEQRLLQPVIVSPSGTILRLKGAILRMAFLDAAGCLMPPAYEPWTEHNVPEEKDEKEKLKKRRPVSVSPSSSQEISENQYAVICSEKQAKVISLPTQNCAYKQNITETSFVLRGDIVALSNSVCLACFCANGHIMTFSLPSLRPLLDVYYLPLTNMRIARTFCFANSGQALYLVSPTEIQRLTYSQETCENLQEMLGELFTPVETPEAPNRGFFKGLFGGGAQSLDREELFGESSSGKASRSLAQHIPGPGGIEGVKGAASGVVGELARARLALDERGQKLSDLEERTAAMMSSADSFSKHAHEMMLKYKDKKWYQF

B1: secretagogin (INS 832/13 cells) (natural protein)
chain: MDNAHRQTQAHLDAACFWQIWQRFDKDEKGYIKETELDAFFDDLLAKFGIEDTLMEENVQKMKEQLMVGHDISKEGRILMKELASMFLSEDENFLLFFRLETPLDNSVEFMQIWRKYDADSSGFISAAELSNFLRDLFLHHKKVISEAELEEYTSTMEKIFDRNKDGRLDLNDLARILALQENFLLQFKMDASSTEERKRDFEKIFAHYDVSKTGALEGPEVDGFVKDMMELVQPSISGVDLDKFREILLRHCDVNKDGKIQKSELALCLGLKINP
  percent decrease of the interaction after KCl stimulation: 65.3%
  percent decrease of the interaction after glucose stimulation: 44.6%
